In the supplement of paper PMC9170038:

Test system: MS2 coat protein
Test: apparent KD of MS2 coat protein; designed switch direction (-1 OFF switch, 1 ON switch): 1; higher = weaker reporter binding
Summary of the method: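 Each step of the titration lasted 0.8–1.5 h at the lowest concentration and 10–20 min at the highest. The protein, SNAP-549-labelled MS2 coat protein, went from 0.7 or 1.5 nM doubling to 3 µM over RNA switches transcribed on Illumina chips by stalled E. coli RNA polymerase. Normalised cluster fluorescence was curve-fitted, and the per-design median over clusters is given as apparent KD.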

[1] = input ligand: microRNA oligo, concentration not stated
[2] = Eterna round: R95, input ligand: FMN 200 uM
[3] = Eterna round: R95, input ligand: microRNA oligo, concentration not stated
[4] = Eterna round: R95, input ligand: none

| Sequence | apparent KD of MS2 coat protein [1] [nM] | apparent KD of MS2 coat protein [2] [nM] | apparent KD of MS2 coat protein [3] [nM] | apparent KD of MS2 coat protein [4] [nM] | apparent KD of MS2 coat protein (input ligand: FMN 200 uM) [nM] | apparent KD of MS2 coat protein (input ligand: none) [nM] |
| --- | --- | --- | --- | --- | --- | --- |
| AGUUGAAAUACAGGAUAUAUAUUAUUUUUAUUUAUAGAAGGGUAAUCACAUGAGGAUCACCCAUGUAUAUACGAGGAAGAAGAG [JMF's solution 1] (Eterna round: R96, puzzle: Same State NG 1) | 182 |  |  |  |  |  |
| AUAAAACAUGAGGAUCACCCAUGUCAACAAAGUCGAGGAUAUGGGCAAAUAAAAUAAGAUCCAGAAGGCGAAUAAU [salish99_ss1_r3_016] (puzzle: Same State 1) |  | 97.3 | 36.3 | 92.7 |  |  |
| AUAAAACAUGAGGAUCACCCAUGUCAACUAAGUCGAGGAUAUGGGCAAAUAAAAUAAGAACCAGAAGGCGAAUAAU [salish99_ss1_r3_041] (puzzle: Same State 1) |  | 34.3 | 322 | 361 |  |  |
| AUACAAAACACAAAUACAAACAAAUACAAACAUGAGGAUCACCCAUGUGCAAUACGACUCUUUAUGGCUGGUCUUCA [Onvete] (Eterna round: R96, puzzle: Sensor for hsa-mir-208a) | 60.1 |  |  |  | 87.7 | 107 |
| AUACAUAUCAGAGGAUAUCACGUCGAAUAGACGUGAGAAGGCUGAUCACACAUGAAUAUUAAUACAUGAGGAUCACCCAUGUAU [SSNG1/14-A1] (Eterna round: R96, puzzle: Same State NG 1) | 13.3 |  |  |  | 13.1 | 17.4 |
| AUAUAUAUAAGGAAGGAUAUCUUAGAAAAAACAUGAGGAUCACCCAUGUAAAUAAAGAAUAAAUGGGAGAAGGUCCAUAUAUAUA [77%, More Tesla, 10] (Eterna round: R96, puzzle: Same State 2) | 22 |  |  |  |  |  |
| AUAUUUAAUGCAGGAUAUGAUUAACAUGAGGAUCACCCAUGUGGUGUUGUGAGUAAGGAGAGUGAUCAGAAGGGCAUUUUUUUU [JMF's solution 100] (Eterna round: R96, puzzle: Same State NG 2) | 322 |  |  |  | 821 | 467 |
| AUGCUCGUGUGAGGAUAUGCCGCCGUUUCGGCUGCAGAAGGUGCUACGUUACAUGAGGAUCACCCAUGUCUCUGUUGUUUCGUG [salish99_SSNG1_r04_942] (Eterna round: R96, puzzle: Same State NG 1) | 18.7 |  |  |  |  |  |
| AUUAAACAUGAGGAUCACCCAUGUCAACAAAGUCGAGGAUAUGGGCAAAUAAAAUAAGAACCAGAAGGCGAAUAUU [salish99_ss1_r3_080] (puzzle: Same State 1) |  | 38.5 | 407 | 180 |  |  |
| AUUAAACAUGAGGAUCACCCAUGUCAACAAAGUCGAGGAUAUGGGCAUAUUAUCUUCUUUCCAGAAGGCGAAUAAU [salish99_ss1_r3_089] (puzzle: Same State 1) |  | 431 | 136 | 404 |  |  |
| AUUAAACAUGAGGAUCACCCAUGUCAACUAAGUCGAGGAUAUGGGCAAAUAAAAUAAGAACCAGAAGGCGAAUAAU [salish99_ss1_r3_074] (puzzle: Same State 1) |  | 55.9 | 347 | 260 |  |  |
| AUUAAGAGCGUAGGAUAUGGGAAAGGAAGUGUACCAGAAGGACGAAUACAGCGUCCGGACAUGAGGAUCACCCAUGUAGGACGG [PowerStrip SSNG 1.18] (Eterna round: R96, puzzle: Same State NG 1) | 23.9 |  |  |  | 10.4 | 56.2 |
| AUUACUAACAUAGGAUAUCAUGCGAAAAUUGCGUGAGAAGGGUGGACACUGUCUUUCUCGGAGUACAUGAGGAUCACCCAUGUG [SameState NG1 #68] (Eterna round: R96, puzzle: Same State NG 1) | 138 |  |  |  | 564 | 147 |
| AUUAUUGAUGCAGGAUAUGAUUAACAUGAGGAUCACCCAUGUGGUGUUGUGAGUAAGGAGAGUGAUCAGAAGGGCAUUUUUUUU [JMF's solution 23] (Eterna round: R96, puzzle: Same State NG 2) | 435 |  |  |  | 747 | 436 |
| AUUAUUUAUGCAGGAUAUGAUUAACAUGAGGAUCACCCAUGUGGUGUUGUGAGUAAGGAGAGUGAUCAGAAGGGCAUUUUUUUA [JMF's solution 56] (Eterna round: R96, puzzle: Same State NG 2) | 410 |  |  |  | 476 | 302 |
| AUUAUUUUUGCAGGAUAUGAUUAACAUGAGGAUCACCCAUGUGGUGUUGUGAGUAAGGAGAGUGAUCAGAAGGGCAUUUUUUUU [JMF's solution 60] (Eterna round: R96, puzzle: Same State NG 2) | 410 |  |  |  | 449 | 315 |
| AUUCGUUAGAUAGGAUAUCACCAUACAUGAGGAUCACCCAUGUUUACCACGCUGGUUUUUCAUACUGAGAAGGAUCUUGAUGAC [JR_SSNG2_Sub006] (Eterna round: R96, puzzle: Same State NG 2) | 16.7 |  |  |  | 20.7 | 30 |

| Sequence | apparent KD of MS2 coat protein [1] [nM] | apparent KD of MS2 coat protein [2] [nM] | apparent KD of MS2 coat protein [3] [nM] | apparent KD of MS2 coat protein [4] [nM] | apparent KD of MS2 coat protein (input ligand: FMN 200 uM) [nM] | apparent KD of MS2 coat protein (input ligand: none) [nM] |
| --- | --- | --- | --- | --- | --- | --- |
| AUUGCUGUCACAGGAUAUCAUGCGGAAAUCGCGUGAGAAGGGUGGACUCUGUCAUUCACGGAGGACAUGAGGAUCACCCAUGUC [SS NG10LRO18] (Eterna round: R96, puzzle: Same State NG 1) | 29 |  |  |  | 508 | 62.4 |
| AUUGCUGUCACAGGAUAUCAUGCGGAAAUCGCGUGAGAAGGGUGGACUCUGUCAUUCACGGAGGACAUGAGGAUCACCCAUGUG [SS NG10LRO19] (Eterna round: R96, puzzle: Same State NG 1) | 8.78 |  |  |  | 66.3 | 22.3 |
| AUUGCUUACGCAGGAUAUGAUGUGGAAACUGCGUCAGAAGGGUGAACAGUAUCGUUGCAAGAGGACAUGAGGAUCACCCAUGUC [SameState NG1 #98] (Eterna round: R96, puzzle: Same State NG 1) | 20.6 |  |  |  | 27.9 | 31.4 |
| AUUUAACAAGCUUUUUGCUCGUCUUAUAAACAUGAGGAUCACCCAUGUAAUAGCGUGAGAGUAAUUAUAUAAAUAAU [JMF 86] (puzzle: Sensor for hsa-mir-208a) |  | 16.4 | 43 | 15.4 |  |  |
| AUUUAACAAGCUUUUUGCUCGUCUUAUAAACAUGAGGAUCACCCAUGUAAUAGCGUGAGAGUAAUUUUUUAAAUAAU [JMF 96] (puzzle: Sensor for hsa-mir-208a) |  | 20.3 | 34.3 | 17 |  |  |
| CAAGAAAACGCAGGAUAUACCCGGGCUACCCGGGUAGAAGGGUGACACAUGAGGAUCACCCAUGUACAUAGAAUUAGCUAUGGA [Soberaa] (Eterna round: R96, puzzle: Same State NG 1) | 15.9 |  |  |  | 284 | 26.7 |
| CACAUCCAGGUAGGAUAUGAGGUGCCAUAGGGAAAAGCCUAUGGACAUGAGGAUCACCCAUGUCCUCAGAAGGGCCGGACGUGA [Ceerbearre] (Eterna round: R96, puzzle: Same State NG 2) | 79.6 |  |  |  | 26.5 | 96.7 |
| CAGCACUAUCGAGAGGAUAUGCGGUGAUGGACAUGAGGAUCACCCAUGUUAGCGAUGGCAUCACGGCAGAAGGCUCUGCUGCUGC [Soteed Omei mod 38] (puzzle: Same State 2) |  |  | 13.2 |  |  |  |
| CAGCGCUGUCGAGAGGAUAUGCGGUGAUAGACAUGAGGAUCACCCAUGUUAGCGAUAGCAUUACGGUAGAAGGCUCUACAGCUGC [Soteed - 12] (puzzle: Same State 2) |  | 29 | 73.3 | 103 |  |  |
| CAGCGCUGUCGAGAGGAUAUGCGGUGAUGGACAUGAGGAUCACCCAUGUUAGCGACAGCAUCACGGCAGAAGGCUCUACCCGCUG [Soteed Omei mod 44] (puzzle: Same State 2) |  |  | 10.6 |  |  |  |
| CAGCGCUGUCGAGAGGAUAUGCGGUGAUGGACAUGAGGAUCACCCAUGUUAGCGAUAGUAUUACGGUAGAAGGCUCUACAGCUGC [Soteed - 11] (puzzle: Same State 2) |  |  | 43.6 |  |  |  |
| CAGUGCUGUUGAGAGGAUAUGCGGCGACGGACAUGAGGAUCACCCAUGUUAGCGACAGCGUUGCGGCAGAAGGCUCUGCCCGCUA [Soteed Omei mod 51] (puzzle: Same State 2) |  |  | 39.3 |  |  |  |
| CAUCGUUUGAUAGGAUAUCGCUAUACAUGAGGAUCACCCAUGUUUACCACGCUGGUUUUUCAUACCGAGAAGGAUUCUGAUGUU [salish99_SSNG02_r04_015] (Eterna round: R96, puzzle: Same State NG 2) | 25.2 |  |  |  | 36 | 38.6 |
| CCAAAGUACAAUUUAGAUCUACAUGAGGAUCACCCAUGUACUGAGGAUAUCAGCUCGUUUAGAGCUGAGAAGGCAGAAUUAAUU [SSNG3/4-A3] (Eterna round: R96, puzzle: Same State NG 3) | 111 |  |  |  | 135 | 224 |
| CCAAAUUGAAUCCACAUGAGGAUCACCCAUGUCCAACCGGUCUAGGAUAUCACAGCAAGCGCGUGUGAGAAGGAGAAAACAAGC [Eternabot solution 34] (Eterna round: R96, puzzle: Same State NG 3) | 21 |  |  |  | 42.1 | 43.4 |
| CCAACGUACAAUUUAGAUCUACAUGAGGAUCACCCAUGUACGGAGGAUAUCAGCUCGAAUAGAGCUGAGAAGGCCGAAUUAAUU [SSNG3/2-A1] (Eterna round: R96, puzzle: Same State NG 3) | 248 |  |  |  |  |  |
